# “Also recorded” adds a separate entry of the source.
# B1: papain (protein, UniProt P00784 134-345, looked up)
# Papain: IPEYVDWRQKGAVTPVKNQGSCGSCWAFSAVVTIEGIIKIRTGNLNEYSEQELLDCDRRSYGCNGGYPWSALQLVAQYGIHYRNTYPYEGVQRYCRSREKGPYAAKTDGVRQVQPYNEGALLYSIANQPVSVVLEAAGKDFQLYRGGIFVGPCGNKVDHAVAAVGYGPNYILIKNSWGTGWGENGYIRIKRGTGNSYGVCGLYTSSFYPVKN
# notes: cysteine proteinase from Carica papaya, Merops C01.001, Sigma P3125
# Columns and labels:
# Meloidogyne spp. J2s = experiment: In vitro mobility of Meloidogyne spp. J2s exposed to plant cysteine proteinases; format: cell-based, M. incognita or M. javanica
# Method: Eggs of M. incognita race 1 from North Carolina State University, USA, and M. javanica from Portugal were collected from the roots of infected tomato plants grown in a glasshouse at 23° C. in a 16:8 h light-dark regime. Eggs were extracted using 1% hypochlorite (NaClO) solution (Hussey and Barker, 1973) or by picking egg masses from the infected roots. M. incognita and M. javanica were both used in the experiments and produced similar results. Juveniles (J2) were hatched from the eggs and egg masses in water. Globodera rostochiensis cysts were washed extensively in distilled water. Hatched J2s were obtained by incubating cysts in distilled water for 4 days followed by exposure to potato root diffusate (PRD).
# Approximately 1000 J2s (second juvenile stage) of M. incognita or M. javanica were incubated per well of a 48-well plate with the following active enzyme concentrations (determined by E-64 titration) of papain dissolved in distilled water containing 16 mM L-cysteine (to activate the cysteine proteinase): 1.5 μM, 3 μM, 6.25 μM, 12.5 μM, 25 μM, 50 μM, 75 μM and 100 μM. Control wells contained J2s and distilled water with and without 16 mM L-cysteine, or J2s and 1 mM E-64, with and without 50 μM (active enzyme) papain, which had been preincubated for 25 mins at 40° C. Each enzyme concentration and the controls were set up in duplicate (n=2) or triplicate (n=3). The number of active J2s per well was counted prior to the addition of papain, and then the J2s were incubated in the dark at room temperature for 3 h. The number of mobile J2s per well was counted after 60, 120 and 180 mins. The nematode surfaces were examined for signs of damage using a light microscope (Zeiss Axioskop) at ×20, ×40 and ×100 magnification and photographs were taken with a Xillix Microimager. The same procedure was followed when setting up further experiments to compare the effects of 25 μM papain, 25 μM crude papaya latex (0.625 g/ml), 25 μM stem bromelain (0.18 g/ml) and 25 μM actinidin (active enzyme concentrations) with M. incognita, M. javanica or G. rostochiensis.
# The data from the in vitro motility experiments were analysed using a repeated measures analysis of variance (as implemented in the GenStat procedure AREPMEASUREMENTS) to compare the overall treatment means, the overall means at each sample time, and the treatment by time interaction. Numbers of nematodes moving at each of the repeated sampling times, 60, 120 and 180 mins, were expressed as a proportion of those moving initially at time 0 (i.e. this latter number was assumed to be the actual number of nematodes initially in the dish). The proportions were transformed to logits prior to analysis. […]
# [1] = tested on: adult females of M. incognita; experiment: Light microscopy of Meloidogyne adult female worms incubated with papain; format: cell-based; parameters: digestion of the cuticle of adult females: dose or concentration left out as unconfirmed
# Method: To assess whether these enzymes also affected the cuticles of other stages of the nematodes, five adult females of M. […], prepared in 16 mM L-cysteine dissolved in phosphate buffered saline (PBS), pH 7.4, or PBS, pH 7.4 with and without 16 mM L-cysteine. These nematodes were incubated in the dark at ambient temperature for 4 h and were then examined using a light microscope at ×10 and ×20 magnification to observe any differences to the nematode body wall.
# M. incognita J2 = experiment: In vitro live/dead count of M. incognita J2 in solution without soil (Example 2); format: cell-based; conditions: after 40 hs of observation, at the nematicidal concentration
# Method: Eggs of M. incognita race 1 from North Carolina State University, USA were collected from tomato-infected roots grown in a glasshouse at 23° C. in a 16:8 h light-dark regime. Eggs were extracted using 1% hypochlorite (NaClO) solution (Hussey and Barker, 1973) or by picking egg masses from tomato-infected roots. Juveniles (J2) were hatched from the eggs and egg masses in water. Heterodera glycines eggs were obtained from soil samples stored in Rothamsted-Research. Second stage juveniles (J2) were hatched from the eggs in water after 10 days. Pratylenchus penetrans were a gift from Dr. Deeren Anne-Marie from the Institute for Agricultural and Fisheries Research, Merelbeke, Belgium. The beneficial nematodes Steinernema feltiae and Heterorhabditis megidis were a gift from Dr. Paul Williams from Becker Underwood. […]
# Control wells were set up which contained J2s and distilled water with 16 mM L-cysteine. […] The actual number of active J2s per well was counted with the aid of an Olympus inverted microscope, prior to the addition of the enzymes, and then the J2s were incubated in the dark at room temperature for 2 hs, 16 hs, 24 hs or 40 hr. The number of live and dead J2s per well was counted after each enzyme incubation. […]
# Pratylenchus penetrans = experiment: In vitro live/dead count of Pratylenchus penetrans; format: cell-based; parameters: concentration of papain latex that killed the nematodes: unit not given here
# Method: (§1) Eggs of M. incognita race 1 from North Carolina State University, USA were collected from tomato-infected roots grown in a glasshouse at 23° C. in a 16:8 h light-dark regime. Eggs were extracted using 1% hypochlorite (NaClO) solution (Hussey and Barker, 1973) or by picking egg masses from tomato-infected roots. Juveniles (J2) were hatched from the eggs and egg masses in water. Heterodera glycines eggs were obtained from soil samples stored in Rothamsted-Research. Second stage juveniles (J2) were hatched from the eggs in water after 10 days. Pratylenchus penetrans were a gift from Dr. Deeren Anne-Marie from the Institute for Agricultural and Fisheries Research, Merelbeke, Belgium. The beneficial nematodes Steinernema feltiae and Heterorhabditis megidis were a gift from Dr. Paul Williams from Becker Underwood.
# (§2) Control wells were set up which contained J2s and distilled water with 16 mM L-cysteine. Each enzyme concentration and the controls were set up in duplicate (i.e. n=2). […] The number of live and dead J2s per well was counted after each enzyme incubation. The same procedure was followed when setting up further experiments to compare the effects of these enzymes with Heterodera glycines J2, Pratylenchus penetrans, Steinernema feltiae and Heterorhabditis megidis.
# Heterodera glycines J2 = experiment: In vitro live/dead count of Heterodera glycines J2; format: cell-based; conditions: 250 μM active papain
# Method: as §1, §2
# Heterorhabditis megidis = experiment: In vitro effect on the beneficial nematode Heterorhabditis megidis; format: cell-based
# Method: as §1
# (§3) Control wells were set up which contained J2s and distilled water with 16 mM L-cysteine. Each enzyme concentration and the controls were set up in duplicate (i.e. n=2). The actual number of active J2s per well was counted with the aid of an Olympus inverted microscope, prior to the addition of the enzymes, and then the J2s were incubated in the dark at room temperature for 2 hs, 16 hs, 24 hs or 40 hr. The number of live and dead J2s per well was counted after each enzyme incubation. The same procedure was followed when setting up further experiments to compare the effects of these enzymes with Heterodera glycines J2, Pratylenchus penetrans, Steinernema feltiae and Heterorhabditis megidis.
# (§4) The beneficial nematodes Hetorhabditis megidis and Steinernema feltiae were incubated with dilutions of actinidin, bromelain and pappain from papaya latex (see concentrations used in table 3). These nematodes reacted differentially to these cysteine proteinases (Tables 4 and 5). […] S. feltiae were dead at all concentrations of actinidin tested. […] After 16 hs of observation the enzyme solutions were diluted with water (to half of the initial concentrations) however, no change in nematode movement was observed after 24 hs.
# Steinernema feltiae = experiment: In vitro effect on the beneficial nematode Steinernema feltiae; format: cell-based
# Method: as §1, §3, §4
molecule,measurement,setting,value
B1,proportion of active Meloidogyne spp. J2s relative to control,Meloidogyne spp. J2s; 25 μM active enzyme,Reductions in the proportion of active worms were evident
same,nematodes mobile after 180 mins,"Meloidogyne spp. J2s; 50 μM active papain, with or without pre-incubation with 1 mM E-64",None
same,mobility (proportion of mobile J2s) of Meloidogyne spp. J2s,"Meloidogyne spp. J2s; papain 1.5-100 μM active enzyme, all doses combined, 60-180 mins, vs combined controls",decreased the mobility; also recorded: decreased linearly
same,activity of Meloidogyne J2s relative to combined controls,Meloidogyne spp. J2s; papain at active enzyme concentrations of 1.5 μM and 3 μM,caused reductions in the activity
same,digestion of the cuticle of adult females (light micrographs),"[1]; 25 μM active papain, 4 h",Digestion of the cuticle was evident
same,digestion of the cuticle of adult females,[1]; active papain,digestion of the cuticle was evident
same,recovery of movement,M. incognita J2,not able to recover movement
same,concentration of papain latex that killed the nematodes,Pratylenchus penetrans,62.504
same,recovery of mobility,Pratylenchus penetrans; after 48 hs,no recovery of mobility
same,state of the nematodes after incubation,Heterodera glycines J2; 16 hs,dead
same,recovery,Heterodera glycines J2; after 48 hs,no recovery
same,effect on H. megidis,Heterorhabditis megidis; papain 15 μM,not affected anymore
same,movement of H. megidis,Heterorhabditis megidis; papain 62.4 μM,moving slowly
same,only papain concentration that affected S. feltiae movement,Steinernema feltiae,250 µM
same,nematode motility or behaviour,"Steinernema feltiae; enzyme concentration A (Table 3): actinidin 3.3 mM, bromelain 2.2 mM, papain 250 uM",70% paralysed
same,nematode motility or behaviour,"Steinernema feltiae; enzyme concentration B: actinidin 1.7 mM, bromelain 1.1 mM, papain 125 uM",All moving slowly

# — US20110239327A1, “Nematicidal Effects of Cysteine Proteinases and Methods of Use Thereof to Treat Nematode Infestation” (priority 2007, published 2011)
